Changes are numbered by the printed parent chain.
B1: recombinant H7-235 IgG1 (rH7-235 IgG1) (antibody, V domains shown)
VH: QVQLVESGGGVVQPGESLRLSCAASGFAFRTYGMHWVRQAPGKGLEWVGVIWYDGSNKYYGDSVKGRFTISRDNSQNTLYLQMNSLRAEDTAVYYCARNGERWRVEDYYYGMDVWGQGTLVTVSS
VL: EIVMTQSPLSLPVTPGEPASISCRSSQSLLHSNAHNYLDWYLQKPGQSPQLLIYLGSNRASGVPDRFSGSGSGTDFTLKISRVEAEDVGIYYCMQALQTPITFGQGTRLEIK
notes: IgG1; also called rH7-235 mAb; mAb H7-235; copies: 2 + 2
B2: rH7-235rev IgG1 (germline revertant form of rH7-235 IgG) (antibody, V domains shown)
VH: B1 VH with E16R, A28T, R30S, T31S, G49A, G61A, Q76K
VL: not shown
B3: rH7-235 IgG1 (recombinant human monoclonal antibody H7-235) (antibody, V domains shown)
VH: B1 VH
VL: B1 VL
notes: also called mAb H7-235; source: Expi293F, transient transfection, purified (MabSelect Sure)

Experiments:
[1] = biological target: recombinant soluble trimeric H3 HA of A/Hong Kong/1/1968 H3N2 (HK68 H3) (Influenza A virus A/Hong Kong/1/1968 …, UniProt Q91MA7); assay: ELISA; conditions: both partners purified
[2] = biological target: recombinant soluble trimeric H3 HA of A/Hong Kong/1/1968 H3N2 (Influenza A virus A/Hong Kong/1/1968 …, UniProt Q91MA7); assay: ELISA; conditions: both partners purified
recombinant soluble trimeric H3 HA of A/Hong Kong/1/1968 H3N2, sequence (Q91MA7 17-530): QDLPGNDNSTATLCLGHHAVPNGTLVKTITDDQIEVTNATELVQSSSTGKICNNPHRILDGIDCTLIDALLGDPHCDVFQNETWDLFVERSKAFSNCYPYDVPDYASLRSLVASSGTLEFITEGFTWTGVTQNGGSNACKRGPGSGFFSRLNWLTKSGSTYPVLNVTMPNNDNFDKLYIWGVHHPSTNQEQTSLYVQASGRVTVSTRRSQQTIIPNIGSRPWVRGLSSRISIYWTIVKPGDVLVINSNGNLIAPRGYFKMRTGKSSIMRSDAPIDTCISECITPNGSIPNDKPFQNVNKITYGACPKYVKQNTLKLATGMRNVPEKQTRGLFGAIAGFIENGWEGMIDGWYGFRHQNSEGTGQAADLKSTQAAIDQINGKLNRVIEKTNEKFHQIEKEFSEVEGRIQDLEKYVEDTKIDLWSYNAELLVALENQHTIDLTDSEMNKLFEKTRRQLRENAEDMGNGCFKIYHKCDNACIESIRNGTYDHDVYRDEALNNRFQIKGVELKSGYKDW

recombinant soluble trimeric H3 HA of A/Hong Kong/1/1968 H3N2 (HK68 H3), sequence (Q91MA7 17-530): as above

| Binder | binding result [1] | binding result [2] |
| --- | --- | --- |
| B1 | no binding |  |
| B2 |  | no binding (tested: >10,000 ng/mL) |
| B3 |  | no binding (tested: >10,000 ng/mL) |

From article PMC12288907 (JCI Insight, 2025)
